Experimental data reported in the supplement of paper PMC9170038.

Test system: MS2 coat protein
Assay: apparent KD of MS2 coat protein; higher = weaker reporter binding
Conditions: Eterna round: R107
How it was run: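 Normalised binding curves from single clusters were fitted, and the median fit for each design is given as apparent KD. The clusters held designed RNA switches transcribed on-chip from Illumina sequencing clusters. These were titrated with SNAP-549-labelled MS2 coat protein (twofold steps from 0.7 or 1.5 nM to 3 µM, 0.8–1.5 h to 10–20 min per step) in 100 mM Tris-HCl pH 7.5, 80 mM KCl, 4 mM MgCl2, without or with constant ligand.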

[1] = input ligand: theophylline 20 uM
[2] = input ligand: theophylline 2 mM
[3] = input ligand: tryptophan 2.4 mM

Sequence | apparent KD of MS2 coat protein (input ligand: arginine 13.2 mM) | apparent KD of MS2 coat protein (input ligand: none) | apparent KD of MS2 coat protein [1] | apparent KD of MS2 coat protein [2] | apparent KD of MS2 coat protein [3]
AUGCAUAUCAGAAGGAGCGUCAUUAACAUGAGGAUCACCCAUGUAACAUUGAAUUCGAUGAGACAGGUAGGUCGCUGAAUAGUAA [SS-ArgB26] | 26.6 nM | 35.6 nM | 44.9 nM | 37.9 nM | 31.1 nM
AUGCCUAGUGGAAGGAGCGAGGGUCUUCUCAACAUGAGGAUCACCCAUGUUCUUUUACACCCUCAGGUAGGUCGCCAUUGGGACA [Biraanve] | 25.1 nM | 55 nM | 85.2 nM | 44.6 nM | 61.2 nM
AUGCGGUGCGGAAGGAGCGAGUUUGCCUAUUACAUGAGGAUCACCCAUGUGGGUAAUGGGACUCAGGUAGGUCGCCGUUGUCGCA [Same State Arginine B GF 28] | 41.9 nM | 57.5 nM | 77.9 nM | 65.1 nM | 50.1 nM
AUGGUCGACGAUCUGCGAAAAGCAGAUCGACGAGGACCGGUACGGCCGCCACUCGUGUUCAUUAAACAUGAGGAUCACCCAUGUA [#15Tryptophan A Same State] | 41 nM | – | 68.7 nM | 70.2 nM | –
AUGGUUGUCGCGGCCGCCACUGUCGGCCGCCACUAAACAUGAGGAUCACCCAUGUAGGACCGGGACAGGACCGGGUGAUAACCAC [TryBS - #DoubleAptamer 3] | 24.1 nM | 25.9 nM | 33.9 nM | 33.2 nM | 14.3 nM
AUGUUUGUGUGAGAUACCAGUGAGGCCACAUGAGGAUCACCCAUGUCCCUCACUCCGGCCCACCCUUGGCAGCUCUUAUAGUAAA [Exclusion Theophylline B GF 25] | 12 nM | – | 12.9 nM | – | 10.4 nM
AUUAAAAGUUGUGAUACCAGACGAACAUGAGGAUCACCCAUGUAACUUUUAGGUGUUGUAGUCCCUUGGCAGCACUAUGUAGUUA [JR_SSTheophyB_Sub012] | 31.3 nM | – | 49.2 nM | – | 40.1 nM
AUUAAGGAUAUAUAGAAGGCGGAGAAGAGACGAGGACCGGUACGGCCGCCACUCGUGUUAGUUAACAUGAGGAUCACCCAUGUAA [Turkey 2] | 41.3 nM | – | 76.9 nM | 102 nM | –
AUUCAUGGAAACAUGACAUAGGGAUCCGGUCGAGGACCGGUACGGCCGCCACUCGUUUGGAGGCACAUGAGGAUCACCCAUGUUA [SS Tryp A #7] | 40.7 nM | – | 118 nM | 101 nM | –
AUUGACAUGAGGAUCACCCAUGUAUCCGAAGGAGCGGCAGAUGUGCCAGGUAGGUCGCGGGUGAAAGAGACAUCGUAGGGUGUCG [Same State - Arginine A / B [only NuPack]] | 73.9 nM | 256 nM | 207 nM | 469 nM | 229 nM
AUUGGGUUAUCAGAUACCAGACUAUUCUAGACAUGAGGAUCACCCAUGUAUUGGGUUUUCGUCCCUUGGCAGCUGUUAAGUUUAA [JR_SSTheophyB_Sub005] | 117 nM | – | 195 nM | – | 165 nM
AUUGUCGCGUCGGCCGCCACUGUCAUGGUUUUCGUGGAACACAUGAGGAUCACCCAUGUAAUUGACAGGACCGGGACGUGGCGGC [Vevea] | 10.2 nM | 8.64 nM | 11.1 nM | 10.6 nM | 12.2 nM
AUUUAUUAGACGGCCGCCACUUGAAAGCGACCUCAUAAAUGGGAACAUGAGGAUCACCCAUGUAAGAGGACCGGGUCUAGUAGAU [TryptB-ms2@45] | 132 nM | – | 150 nM | 318 nM | –
CAAGAACAGCCAGAUCUUGGCAGCUGAGAAGGAGCGCGGGAAGCCGCAGGUAGGUCGCUCAGGAAUACAUGAGGAUCACCCAUGU [Beoror] | 19.8 nM | 17.6 nM | 24.6 nM | 20 nM | 17.2 nM
CAAUUUAGAAAACUAAAUUGAGUGGGUGAACGAGGACCGGUACGGCCGCCACUCGGACAUGAGGAUCACCCAUGUCCAUGUGAAA [AstrosExyTryA#23] | 11.3 nM | 14.8 nM | 15.8 nM | 16.6 nM | 29.2 nM
CAAUUUAUAUGAAGGAGCGUCGAAAAUGGGUAAACAUGAGGAUCACCCAUGUAAAGGGAACGACAGGUAGGUCGCAUAUGGAUUG [AstromonsSSArgB#10] | 123 nM | 180 nM | 234 nM | 316 nM | 182 nM
CAAUUUCGAAUAGAUACCAGCUGUCAUAAACACAUGAGGAUCACCCAUGUGCUUCUCGUCAGCCCUUGGCAGCUAUAACUAGAGC [theeternabot_sameState_MS2_Theo_B_40] | 15.4 nM | – | 16.5 nM | – | 16.1 nM
CACAUGAGGAUCACCCAUGUCUGAACUGAAGGAGCGCUAAACAAGGCAGGUAGGUCGCGGAAUUUUGUGUGCAUAUGCACACGGG [9.R] | 16.8 nM | 17.2 nM | 32.7 nM | 21.1 nM | 17.6 nM
